Results as given in the nanobody polyreactivity screen of Harvey et al. (2022).

Assay: yeast display, Sf9 membrane polyspecificity reagent, FACS + sequencing; frameworks hold sequencing errors
Procedure, shortened: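 A synthetic nanobody library was expressed on Saccharomyces cerevisiae BJ5465 by galactose induction for 36–48 hours. The library was stained for 1 hour at 4 °C with 10% biotinylated, detergent-solubilized Sf9 membrane reagent and enriched with streptavidin microbeads before FACS. Low and high (top ~1%) gates were set on anti-HA fluorescence for expression and streptavidin fluorescence for reagent binding, and each polyreactivity label reflects the gate of origin.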

| Sequence | polyreactivity (PSR sort gate) |
| --- | --- |
| QVQLVESGGGLVQEGGSLRLSCAASGSIVTLYAMGWSRQAPGKERELVAAITWYGGSTYYADSVKGRFTISRDNAKNTVYLQMNSLKPEDTAVYYCAKDYLAGGPCEGHVEREYDYWGQGTQVTVSS | low polyreactivity |
| QVQLVETGGALVQAGGSLRLSCAASGYTFYRYAMGWYRQATGKERELVAAISYSGGRTYYADSVKGRFTISCDIAKNTVYLQMNSLKPEDTAVYYCNARASYGHQGRLGYARLYYWGQGTQVTVSS | high polyreactivity |
| QVQLVESGGGLDQAGGSLRLSCAASGFIFPVYAMGWSRPAPGKERELVAAIRRGGSTNYADSVKGRFTISRDNAKNTVYVQMNSLKPEDTAVYYCAKTIGLKHEDEYWGQGTQVTVSS | low polyreactivity |
| QVQLVESGGGLVQAGGSLRLSCAASGRIFGYYARGWYRQAPGKEREFVAGITQRTDSTYYADSVKGRFTISRDNAKNTVYLQMNSLKPEDTAVYFCAARGYGGYHWGYYWGQGTQVTVSS | high polyreactivity |
| QVQLVESGGGLVQAGGSLRLSCAASGSIFSGYAMGWYRQAPGKERELVAAITWRGGSTYYADSVKGRFTISRDNAKNTVYLQMNSLKPEDTAVYYCARVWAWSRYDYWGQGTEVTVSS | high polyreactivity |
| QVQLVESGGGLVQAGGSLRLSCDASGLIFYDNMGWYRQAPGKERELVAAISSSGGSTSYADSVKGRFTISRDNAKNTVYLQMNSLKPEDTAVYYCAAELGYIGSYYWIYYYWGQGTQGTVSS | low polyreactivity |
| QVQLVESGAGLVQAGGRLRLSCAASGIIFYNYAMGWYRQAPGKERQFVAAISWSGGSTNYADSVKGRFTISRDNAKNTVYLQMNSLKPEDTAVYYCAAEYSGNNYNSDYWGQGTQVTVSS | low polyreactivity |
| QVHLQESGGGLEQAGGSLSPSCAASGSISNGVPMGWYRQAPGEERELVATTVLGATTNYADSVKGRFTISRGNAKNPVYLQMNSLKPEETAVYYCAAPLRYDKGFSYWGQGTQVTVSS | low polyreactivity |
| QVQLVESGGGLVQAGGSLRLSCAASGGIFAYYGMGWYRQAPGKERELVAAIWIGGNTYYADSVKGRFTISRDNAKNTVYLQMNSLKPEDTAVYDCAAAGSAYYSTRKWDSYYYWGQGTQVTVSS | low polyreactivity |
| QVQLVESGGGLVQAGGSLRLSCAASGLIFSPYAMGWYRQAPGKERELVAAITWSGGSTYYADSVKGRFTISRDNAKNTVYLQMNSLKPEDTAVYYCNAVTTRLALYDYWGQGTQVTVSS | high polyreactivity |
| QVQLVESGGGLVQAGGRLRLSCAASGFTFYRYPMGWYRQAPGTERELVAAITWSGGSTYYADSVKGRFTISRDTAMNTVYLQMNSLKPEDTAVYYCAADIYDGGFDYWGQGTQVTVSS | low polyreactivity |
| QVQLVESGGGLVQAGGSLRLSCAASGFIFDYNTMGWYRQAPGKERELVADISGGGGRTYYADSVKGRFTISRDNAKNTVYLQMNSLKPEDTAVYYCAALGFYHHAWWISYDYWGQGTQVTVSS | low polyreactivity |
| QVQLVESGGGLVQAGGSLRLSCAASGLIFGTNAMGWYRQAPGKERELVAAISGSGGRTYYADSVKGRFTISRDNAKNTVYLQMNSLKPEDTAVYYCAADYVYGTRDDYWGQGTQVTVSS | high polyreactivity |
| QVQLVESGGGLVQAGGSLRLSCAASGYIFERNALGWYRQAPGKERELVAAINWRTGRTYYADSVKGRFTISRDYAKYNVYLQMNSLKPEDTAVYYCAKEHSTYWAQPTYSYDNWGQGTQVTVSS | low polyreactivity |
| QVQLVESGGGLVQAGGSLRLSCAASGSIFEGNGMGWYRQAPGQERELVAAITFRSGSTYYADSVKGRFTISRDNAKNTVYLQMNSLKPEDTAVYYCAADEYYQGYAYDYWGQGTPVTVSS | low polyreactivity |
| QVQLVESGGGLVQAGGSLRLSCAASGRIFVVYAMGWYRQAPGKERELVAAITRSGGRTFYAASVKGRFTISRDNATNTVYLQMYSQKPEDTAVYYCNKVDRFYLRLVYWGQGTQVTVAS | high polyreactivity |
| QVQLVESGGGLVQAGGSLRLSCAASGSIFRSYAMGWYRQSPGKERELVAAITRSGGSTYYADSVKGRFTISRDNAKNTVDLQMNSLKPEDTAVYYCAAEYYSYTWGWGHGYWGQGTQVTVSS | high polyreactivity |
| QDQLVESGGRIVQAGGSLRLSCASSGRTFYTYAMGWYRKAPGKERELVAAISSSGSTYYADSVKGRFTISRDNAKNTVYLQMNSLKPEDTALYDCNARTSRYRRGGDSWGQGTQVTVSS | high polyreactivity |
| QVQLVESGGGLVQAGGSLRLSCAASGLTFTYNAMGGYRQAPGKERELVAAITSGGNTNYADSVKGRFTISRDNAKNTVYLQMKSLKPEDTAVYYCATDRKNGISGRYGYWGQGTQVTVSS | low polyreactivity |
| QVQLVESGGGLVQAGGSLRLSCAASGRTLLKNAMGWYRQAPGKEREFVAAITYSSGSTYYADSVKGRFTISRDNAKNTVYLQMNSLKPEDTAVYYCAKTNFSQSSRYNYDYWGQGTQVTVSS | low polyreactivity |
| QVQHVESWRGLVQAGGSLRLSCDASGSIIQIYAMGWYRQAPGKVRELVASITWSGGSPYYADSVKGRFTISRDNAKNTVYLQMNSLKPEDTAVFYCATDKLYGRTVRMDYWGQGTQVTVSS | low polyreactivity |

| Sequence | polyreactivity (PSR sort gate) |
| --- | --- |
| QVQLVESGGGLVQAGGSLRLSCAASGSIFHGYAMGWYRTAPGKERELVAAISYTGGRTYYADSVKGRFTISRDNAMNTVYLQMNSLKPEDTAVYYCAAHDYWGQGTQVTVSS | high polyreactivity |
| QVQLVESGGGLVQAGGSLRLSCAASGSTFVDNAMGWYRQAPGKERELVAAISTRGGTTYYADSVKGRFTISRDNAKNTVYLQMKSLKAEDTAVYYCAAEIFTSVWWRWVDGDYWGQGTQVTVSS | high polyreactivity |
| QVQLVESGGGLVQAGGSLRLSCAASGSTFNRYAMGWYRQAPGKERELVAAISSGGTTYYADSVKGRFTSSRDNAKNTVYLQMNSLKPEDTAVYYCNARKYGWVQRIIIYDYWGQGTQVTVSS | high polyreactivity |
| QVQLVESGGGLVQAGGSLRLSCAASGRSLHHYAMGWYSQAPGKERELVAAIRWGGGSTYYADSVKGRFTISRDNAKNTVYLQMNSLNPEDPAVYSCAAEVVAGYDYSQYYYWGQGTQVTVST | low polyreactivity |
| QVQLVESGGGLVQAGGSLRVICAASGSTFLENAMGWYRQAPGKERELVAAISRSGARTYYADSVKGRFTISRDNAKNTVYLQMNSLKPEDTAVYYCAASHGKNKASGPMDYWGQGTQVTVSS | high polyreactivity |
| QVQLVESGGGLVQAGGSLRLSCAASGTYFNAMGWYRQAPGKERELVAAISLSGGRTYYADSVKGRFTISRDNAKNTVYLQMNSLKPEDTAVYYCAASNRGATRRQVNYWGQGTQVTVSS | high polyreactivity |
| QVQLVESGGGLVQAGGSLRLSCAASGSTFGNAMGWYSQAPGKERELVAAISGSGSDTYYADSVKGRFTISRDNAKNPVYLQMNSLKPEDTAVYSWATETHRLDKGTDYGYDYWGQGTQVTVSS | low polyreactivity |
| QVQLVESGGGLVQAGGSLRLISAASGGISSLNAMGWYSQAPGKERELVAAIDWIGGSTYYADSVKGRFTISRDTAKNTVYLQKNSLKPEDTAVYYCGKRGVYGDRYYYWGQGTQVTVSS | high polyreactivity |
| QVQLVESGGGLVQAGGSLRLSCEASGRIFGWYAMGWYRQAPGNERELVAALTNSGGSTYYADSVKGRFTISRDYEKNTVYFQMNRLKPEDTGVYFCAAESWIRRWYGGGKKYEYWGQGTQVTVSS | high polyreactivity |
| QVQLVESGGGLVQAGGSLRLSCAASGSIFGANAMGWYRQAPGKERELVAAISTRGGRTYYADSVKGRFTISRDNAKNTVYLQMNSLKPEDTAVYYCATSGGRPYKYEYWGQGTQVTVSS | high polyreactivity |
| QVQLVESGGGLVQAGGSLRLSCAASGGTFRVYTMGWYRQAPGKERELVAAIILRGGGTYYADSVKGRFTISRDNAKNPVYLQMNSLNPEDTAVYYCNARSGNRYGPRYDYWGQGTQVTVSS | high polyreactivity |
| QVQLVESGGGLVQAGGSLRLSCAASGFILPTYAMGWYRQAPGKEREFVAAIRTSTGATYYADSVKGRFTISRDIAKNTVYLQMTSLKPEDNAVYYFPADAPWSEWLWADIVGYEYWGQGTQVTVSS | low polyreactivity |
| QVQLVESGGGVVQAGGSLRLSCAASGSIFFLYAMGWSRQATGKEREFVAAITGTADSTYYADSVKGRFTISRDDAKNTVYLQMNSLKPEDTAVYYCATDYWSSVKLDDYWGQGTQVTVSS | low polyreactivity |
| QVQLVESGGGLVQAGGSLRLSCAASGRIFTGNAMGWYRQAPGKERELVATISTGGSTNYADSVKGRFTISRDNAKNTVYLQMNSLKPEDTAVYYCAADTYYGYIIHVEYWGQGTQVTVSS | low polyreactivity |
| QVQLVESAGGLVQAGGSLRLSCAASGSTFVTYDMGWYRQAPGKERELVAAIRYSDGSTYYADSVKGRFTISRDNAKNTVYRQMNSLKPEDTAVYYCAADLGNYDYYGYVRYDYWGQGTQVTVSS | low polyreactivity |
| QVQLVESGGGLVQAGGSLRLSCAASGSTFGFYAMGWYRQAPGKERELVAAISSAARTYYADSVKGRFTISRDNAKNTVYLQMNSLKPEDTAVYYCSAEAYHWTSYIGYGGVYYWGQGTQVTVSS | low polyreactivity |
| QVQLVESGGGLVQAGGRLRLTCAASGSIFFYAMGWYRQAPGKERELVAGITTSGGSTYYADSVKGRFTISRDNAKNTVYLQMYSLKPEYTAVYYCAADGSRAGQEGNDYWGQGTQVTVSS | low polyreactivity |
| QVQLVESGGGLVLAGGSLRLSCAASGSTFTRNAMGWYRQAPGKERELVATISSGGSTNYADSVKGRFTISRDNAKNTVYLQMNSLKPEDTAVYYCAKRSLYRYYYWGQGPQVTVSS | high polyreactivity |
| QVQLVESGGGLVQAGGSLRLSCAASGSTFFSNAMGWSRQAPGKERELVAAISWSGGSTYYADSVKGRFTISRDNAKNTVYLQMNSLKPEDTAVYYCAASFWTDYYRYDYWGQGSQVTVSS | low polyreactivity |
| QVQLVESGGGLVQAGGSLRLSCAASGITFYVYALRWYRQAPGKERELVASISWIGGRTYYADSVKGRFTISRDNAKNTVYVQMNSLKPEDTAVYYCAARAYSYWSGLDYWGQGTQVTVSS | high polyreactivity |
